Source: patent publication US20250339531A1, “DUX4 POLYPEPTIDES AND NUCLEIC ACIDS FOR TREATING INFLAMMATORY AND AUTOIMMUNE CONDITIONS” (Fred Hutchinson Cancer Center, priority 2021, published 2025)

Tested on: proteins that co-immunoprecipitated with DUX4-CTD constructs expressed in MB135 myoblasts
Test: LC-MS of proteins co-immunoprecipitated with DUX4-CTD (Table 1) and western validation
Assay type: binding, human
Set-up: key to 4. mL1dL2 + Dox + IFNG / 4. + IFNG mix / 4. longCTD + Dox + IFNG / 3. + IFNg + Dox longCTD / 3. + Dox longCTD / 3. + IFNG longCTD: peptide-spectrum matches (PSMs) per protein
Details: for 4. mL1dL2 + Dox + IFNG: LC-MS value per protein co-immunoprecipitated with DUX4-CTD construct mL1dL2 in MB135 myoblasts; for 4. mL1dL2 + Dox + IFNG / 4. + IFNG mix: kind of count not given; for 4. + IFNG mix: LC-MS value per protein co-immunoprecipitated from MB135 myoblasts, + IFNG mix sample (no Dox); for 3. + IFNg + Dox longCTD: experiment 3, IFNg + Dox; for SUM of PSMS: sum over all samples
How it was run: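 FLAG-tagged DUX4-CTD expressed in doxycycline-induced MB135 myoblasts, some also IFNG-treated; nuclear lysates in pH 7.4 NP-40 IP buffer were pre-cleared, then anti-FLAG immunoprecipitated 3 h at 4 °C. For LC-MS, FLAG-peptide elution, in-gel trypsin digest, Orbitrap analysis; proteins with ≥2 PSMs in both experiments categorised and ranked by total PSMs.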

B1: RNH1 (protein)
chain: SLDIQSLDIQCEELSDARWAELLPLLQQCQVVRLDDCGLTEARCKDISSALRVNPALAELNLRSNELGDVGVHCVLQGLQTPSCKIQKLSLQNCCLTGAGCGVLSSTLRTLPTLQELHLSDNLLGDAGLQLLCEGLLDPQCRLEKLQLEYCSLSAASCEPLASVLRAKPDFKELTVSNNDINEAGVRVLCQGLKDSPCQLEALKLESCGVTSDNCRDLCGIVASKASLRELALGSNKLGDVGMAELCPGLLHPSSRLRTLWIWECGITAKGCGDLCRVLRAKESLKELSLAGNELGDEGARLLCETLLEPGCQLESLWVKSCSFTAACCSHFSSVLAQNRFLLELQISNNRLEDAGVRELCQGLGQPGSVLRVLWLADCDVSDSSCSSLAATLLANHSLRELDLSNNCLGDAGILQLVESVRQPGCLLEQLVLYDIYWSEEMEDRLQALEKDKPSLRVIS
- 4. mL1dL2 + Dox + IFNG: 4

B2: KANK2 (protein)
chain: MAQVLHVPAPFPGTPGPASPPAFPAKDPDPPYSVETPYGYRLDLDFLKYVDDIEKGHTLRRVAVQRRPRLSSLPRGPGSWWTSTESLCSNASGDSRHSAYSYCGRGFYPQYGALETRGGFNPRVERTLLDARRRLEDQAATPTGLGSLTPSAAGSTASLVGVGLPPPTPRSSGLSTPVPPSAGHLAHVREQMAGALRKLRQLEEQVKLIPVLQVKLSVLQEEKRQLTVQLKSQKFLGHPTAGRGRSELCLDLPDPPEDPVALETRSVGTWVRERDLGMPDGEAALAAKVAVLETQLKKALQELQAAQARQADPQPQAWPPPDSPVRVDTVRVVEGPREVEVVASTAAGAPAQRAQSLEPYGTGLRALAMPGRPESPPVFRSQEVVETMCPVPAAATSNVHMVKKISITERSCDGAAGLPEVPAESSSSPPGSEVASLTQPEKSTGRVPTQEPTHREPTRQAASQESEEAGGTGGPPAGVRSIMKRKEEVADPTAHRRSLQFVGVNGGYESSSEDSSTAENISDNDSTENEAPEPRERVPSVAEAPQLRPAGTAAAKTSRQECQLSRESQHIPTAEGASGSNTEEEIRMELSPDLISACLALEKYLDNPNALTERELKVAYTTVLQEWLRLACRSDAHPELVRRHLVTFRAMSARLLDYVVNIADSNGNTALHYSVSHANFPVVQQLLDSGVCKVDKQNRAGYSPIMLTALATLKTQDDIETVLQLFRLGNINAKASQAGQTALMLAVSHGRVDVVKALLACEADVNVQDDDGSTALMCACEHGHKEIAGLLLAVPSCDISLTDRDGSTALMVALDAGQSEIASMLYSRMNIKCSFAPMSDDESPTSSSAEE
- 4. mL1dL2 + Dox + IFNG: 1

B3: TRIM28 (protein)
chain: AASAAAASAAAASAASGSPGPGEGSAGGEKRSTAPSAAASASASAAASSPAGGGAEALELLEHCGVCRERLRPEREPRLLPCLHSACSACLGPAAPAAANSSGDGGAAGDGTVVDCPVCKQQCFSKDIVENYFMRDSGSKAATDAQDANQCCTSCEDNAPATSYCVECSEPLCETCVEAHQRVKYTKDHTVRSTGPAKSRDGERTVYCNVHKHEPLVLFCESCDTLTCRDCQLNAHKDHQYQFLEDAVRNQRKLLASLVKRLGDKHATLQKSTKEVRSSIRQVSDVQKRVQVDVKMAILQIMKELNKRGRVLVNDAQKVTEGQQERLERQHWTMTKIQKHQEHILRFASWALESDNNTALLLSKKLIYFQLHRALKMIVDPVEPHGEMKFQWDLNAWTKSAEAFGKIVAERPGTNSTGPAPMAPPRAPGPLSKQGSGSSQPMEVQEGYGFGSGDDPYSSAEPHVSGVKRSRSGEGEVSGLMRKVPRVSLERLDLDLTADSQPPVFKVFPGSTTEDYNLIVIERGAAAAATGQPGTAPAGTPGAPPLAGMAIVKEEETEAAIGAPPTATEGPETKPVLMALAEGPGAEGPRLASPSGSTSSGLEVVAPEGTSAPGGGPGTLDDSATICRVCQKPGDLVMCNQCEFCFHLDCHLPALQDVPGEEWSCSLCHVLPDLKEEDGSLSLDGADSTGVVAKLSPANQRKCERVLLALFCHEPCRPLHQLATDSTFSLDQPGGTLDLTLIRARLQEKLSPPYSSPQEFAQDVGRMFKQFNKLTEDKADVQSIIGLQRFFETRMNEAFGDTKFSAVLVEPPPMSLPGAGLSSQELSGGPGDGP
- 4. + IFNG mix: 1
- 4. mL1dL2 + Dox + IFNG: 8

B4: NONO (protein, UniProt Q15233 1-471, looked up)
Non-POU domain-containing …: MQSNKTFNLEKQNHTPRKHHQHHHQQQHHQQQQQQPPPPPIPANGQQASSQNEGLTIDLKNFRKPGEKTFTQRSRLFVGNLPPDITEEEMRKLFEKYGKAGEVFIHKDKGFGFIRLETRTLAEIAKVELDNMPLRGKQLRVRFACHSASLTVRNLPQYVSNELLEEAFSVFGQVERAVVIVDDRGRPSGKGIVEFSGKPAARKALDRCSEGSFLLTTFPRPVTVEPMDQLDDEEGLPEKLVIKNQQFHKEREQPPRFAQPGSFEYEYAMRWKALIEMEKQQQDQVDRNIKEAREKLEMEMEAARHEHQVMLMRQDLMRRQEELRRMEELHNQEVQKRKQLELRQEEERRRREEEMRRQQEEMMRRQQEGFKGTFPDAREQEIRMGQMAMGGAMGINNRGAMPPAPVPAGTPAPPGPATMMPDGTLGLTPPTTERFGQAATMEGIGAIGGTPPAFNRAAPGAEFAPNKRRRY
- 4. + IFNG mix: 1

B5: Q12797 (protein, UniProt Q12797 1-758, looked up)
chain: MAQRKNAKSSGNSSSSGSGSGSTSAGSSSPGARRETKHGGHKNGRKGGLSGTSFFTWFMVIALLGVWTSVAVVWFDLVDYEEVLGKLGIYDADGDGDFDVDDAKVLLGLKERSTSEPAVPPEEAEPHTEPEEQVPVEAEPQNIEDEAKEQIQSLLHEMVHAEHVEGEDLQQEDGPTGEPQQEDDEFLMATDVDDRFETLEPEVSHEETEHSYHVEETVSQDCNQDMEEMMSEQENPDSSEPVVEDERLHHDTDDVTYQVYEEQAVYEPLENEGIEITEVTAPPEDNPVEDSQVIVEEVSIFPVEEQQEVPPETNRKTDDPEQKAKVKKKKPKLLNKFDKTIKAELDAAEKLRKRGKIEEAVNAFKELVRKYPQSPRARYGKAQCEDDLAEKRRSNEVLRGAIETYQEVASLPDVPADLLKLSLKRRSDRQQFLGHMRGSLLTLQRLVQLFPNDTSLKNDLGVGYLLIGDNDNAKKVYEEVLSVTPNDGFAKVHYGFILKAQNKIAESIPYLKEGIESGDPGTDDGRFYFHLGDAMQRVGNKEAYKWYELGHKRGHFASVWQRSLYNVNGLKAQPWWTPKETGYTELVKSLERNWKLIRDEGLAVMDKAKGLFLPEDENLREKGDWSQFTLWQQGRRNENACKGAPKTCTLLEKFPETTGCRRGQIKYSIMHPGTHVWPHTGPTNCRLRMHLGLVIPKEGCKIRCANETKTWEEGKVLIFDDSFEHEVWQDASSFRLIFIVDVWHPELTPQQRRSLPAI
modifications: full-length
- 3. + Dox longCTD (bait longCTD, experiment 3, Dox only): 1
- 3. + IFNg + Dox longCTD (bait longCTD): 9
- SUM of PSMS: 11

B6: CAPRIN1 (protein)
chain: PSATSHSGSGSKSSGPPPPSGSSGSEAAAGAGAAAPASQHPATGTGAVQTEAMKQILGVIDKKLRNLEKKKGKLDDYQERMNKGERLNQDQLDAVSKYQEVTNNLEFAKELQRSFMALSQDIQKTIKKTARREQLMREEAEQKRLKTVLELQYVLDKLGDDEVRTDLKQGLNGVPILSEEELSLLDEFYKLVDPERDMSLRLNEQYEHASIHLWDLLEGKEKPVCGTTYKVLKEIVERVFQSNYFDSTHNHQNGLCEEEEAASAPAVEDQVPEAEPEPAEEYTEQSEVESTEYVNRQFMAETQFTSGEKEQVDEWTVETVEVVNSLQQQPQAASPSVPEPHSLTPVAQADPLVRRQRVQDLMAQMQGPYNFIQDSMLDFENQTLDPAIVSAQPMNPTQNMDMPQLVCPPVHSESRLAQPNQVPVQPEATQVPLVSSTSEGYTASQPLYQPSHATEQRPQKEPIDQIQATISLNTDQTTASSSLPAASQPQVFQAGTSKPLHSSGINVNAAPFQSMQTVFNMNAPVPPVNEPETLKQQNQYQASYNQSFSSQPHQVEQTELQQEQLQTVVGTYHGSPDQSHQVTGNHQQPPQQNTGFPRSNQPYYNSRGVSRGGSRGARGLMNGYRGPANGFRGGYDGYRPSFSNTPNSGYTQSQFSAPRDYSGYQRDGYQQNFKRGSGQSGPRGAPRGRGGPPRPNRGMPQMNTQQVN
- 4. mL1dL2 + Dox + IFNG: 1

B7: G3BP2 (protein)
chain: VMEKPSPLLVGREFVRQYYTLLNKAPEYLHRFYGRNSSYVHGGVDASGKPQEAVYGQNDIHHKVLSLNFSECHTKIRHVDAHATLSDGVVVQVMGLLSNSGQPERKFMQTFVLAPEGSVPNKFYVHNDMFRYEDEVFGDSEPELDEESEDEVEEEQEERQPSPEPVQENANSGYYEAHPVTNGIEEPLEESSHEPEPEPESETKTEELKPQVEEKNLEELEEKSTTPPPAEPVSLPQEPPKAFSWASVTSKNLPPSGTVSSSGIPPHVKAPVSQPRVEAKPEVQSQPPRVREQRPRERPGFPPRGPRPGRGDMEQNDSDNRRIIRYPDSHQLFVGNLPHDIDENELKEFFMSFGNVVELRINTKGVGGKLPNFGFVVFDDSEPVQRILIAKPIMFRGEVRLNVEEKKTRAARERETRGGGDDRRDIRRNDRGPGGPRGIVGGGMMRDRDGRGPPPRGGMAQKLGSGRGTGQMEGRFTGQRR
- 4. mL1dL2 + Dox + IFNG: 1

B8: NAP1L1 (protein)
chain: ADIDNKEQSELDQDLDDVEEVEEEETGEETKLKARQLTVQMMQNPQILAALQERLDGLVETPTGYIESLPRVVKRRVNALKNLQVKCAQIEAKFYEEVHDLERKYAVLYQPLFDKRFEIINAIYEPTEEECEWKPDEEDEISEELKEKAKIEDEKKDEEKEDPKGIPEFWLTVFKNVDLLSDMVQEHDEPILKHLKDIKVKFSDAGQPMSFVLEFHFEPNEYFTNEVLTKTYRMRSEPDDSDPFSFDGPEIMGCTGCQIDWKKGKNVTLKTIKKKQKHKGRGTVRTVTKTVSNDSFFNFFAPPEVPESGDLDDDAEAILAADFEIGHFLRERIIPRSVLYFTGEAIEDDDDDYDEEGEEADEEGEEEGDEENDPDYDPKKDQNPAEC
- 4. mL1dL2 + Dox + IFNG: 2

B9: P50454 (protein, UniProt P50454 1-418, looked up)
chain: MRSLLLLSAFCLLEAALAAEVKKPAAAAAPGTAEKLSPKAATLAERSAGLAFSLYQAMAKDQAVENILVSPVVVASSLGLVSLGGKATTASQAKAVLSAEQLRDEEVHAGLGELLRSLSNSTARNVTWKLGSRLYGPSSVSFADDFVRSSKQHYNCEHSKINFRDKRSALQSINEWAAQTTDGKLPEVTKDVERTDGALLVNAMFFKPHWDEKFHHKMVDNRGFMVTRSYTVGVMMMHRTGLYNYYDDEKEKLQIVEMPLAHKLSSLIILMPHHVEPLERLEKLLTKEQLKIWMGKMQKKAVAISLPKGVVEVTHDLQKHLAGLGLTEAIDKNKADLSRMSGKKDLYLASVFHATAFELDTDGNPFDQDIYGREELRSPKLFYADHPFIFLVRDTQSGSLLFIGRLVRPKGDKMRDEL
modifications: full-length
- 3. + IFNg + Dox longCTD (bait longCTD): 1
- SUM of PSMS: 11
